Measured values published in PMC5922973, “Topoisomerase VI senses and exploits both DNA crossings and bends to facilitate strand passage” (eLife, 2018).
Where a chain is given by its changes, count along the chain named.

T1: topo VI KGRR-AAA (Methanosarcina mazei, UniProt Q8PUB7;Q8PUB8 1-369;1-621, K186A;R188A;R189A)
T1 sequence 1: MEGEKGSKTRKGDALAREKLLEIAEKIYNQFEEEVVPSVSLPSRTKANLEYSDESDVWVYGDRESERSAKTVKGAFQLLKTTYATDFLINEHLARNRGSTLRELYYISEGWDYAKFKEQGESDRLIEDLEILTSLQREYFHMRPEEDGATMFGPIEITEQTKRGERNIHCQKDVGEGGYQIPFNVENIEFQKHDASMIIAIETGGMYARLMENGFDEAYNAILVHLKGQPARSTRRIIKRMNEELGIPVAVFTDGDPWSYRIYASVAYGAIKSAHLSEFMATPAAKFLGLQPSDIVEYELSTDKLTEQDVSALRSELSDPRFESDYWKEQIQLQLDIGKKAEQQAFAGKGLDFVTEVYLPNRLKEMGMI
T1 sequence 2: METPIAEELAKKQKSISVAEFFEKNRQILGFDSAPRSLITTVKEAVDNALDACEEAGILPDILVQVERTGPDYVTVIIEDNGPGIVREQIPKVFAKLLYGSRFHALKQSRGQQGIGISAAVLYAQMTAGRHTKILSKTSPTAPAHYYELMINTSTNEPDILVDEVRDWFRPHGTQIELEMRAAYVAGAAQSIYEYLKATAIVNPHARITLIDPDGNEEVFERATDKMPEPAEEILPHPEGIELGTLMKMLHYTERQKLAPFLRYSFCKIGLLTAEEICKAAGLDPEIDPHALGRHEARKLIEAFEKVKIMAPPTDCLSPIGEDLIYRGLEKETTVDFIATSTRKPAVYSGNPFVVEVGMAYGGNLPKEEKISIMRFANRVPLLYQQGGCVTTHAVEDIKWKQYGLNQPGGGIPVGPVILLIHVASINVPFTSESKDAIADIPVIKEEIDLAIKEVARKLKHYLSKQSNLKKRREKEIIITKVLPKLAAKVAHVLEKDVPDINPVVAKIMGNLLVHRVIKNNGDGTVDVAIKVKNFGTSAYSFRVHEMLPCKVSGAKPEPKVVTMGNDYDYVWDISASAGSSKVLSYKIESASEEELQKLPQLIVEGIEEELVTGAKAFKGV

T2: topo VI H2TH-AAA (Methanosarcina mazei, UniProt Q8PUB7;Q8PUB8 1-369;1-621, R263A;K268A;K308A)
T2 sequence 1: T1 sequence 1
T2 sequence 2: T1 sequence 2 with A186K, A188R, A189R, R263A, K268A, K308A

T3: topo VI holoenzyme WT (Methanosarcina mazei, UniProt Q8PUB7;Q8PUB8 1-369;1-621)
T3 sequence 1: T1 sequence 1
T3 sequence 2: T1 sequence 2 with A186K, A188R, A189R

B1: 60 bp duplex (dsDNA)
DNA 1: CGCTTCAATAATATTGAAAAAGGAAGAGTATGAGTATTCAACATTTCCGTGTCGCCCTTC
DNA 2: GAAGGGCGACACGGAAATGTTGAATACTCATACTCTTCCTTTTTCAATATTATTGAAGCG
B2: 30 bp duplex (dsDNA)
DNA 1: CAAAAAGGAAGAGTATGAGTATTCAACATC
DNA 2: GATGTTGAATACTCATACTCTTCCTTTTTG
B3: 40 bp duplex (dsDNA)
DNA 1: CTATTGAAAAAGGAAGAGTATGAGTATTCAACATTTCCGC
DNA 2: GCGGAAATGTTGAATACTCATACTCTTCCTTTTTCAATAG
B4: 20 bp duplex (dsDNA)
DNA 1: CGGAAGAGTATGAGTATTCG
DNA 2: CGAATACTCATACTCTTCCG
B5: 70 bp duplex (dsDNA)
DNA 1: CCAAATGCTTCAATAATATTGAAAAAGGAAGAGTATGAGTATTCAACATTTCCGTGTCGCCCTTATTCCC
DNA 2: GGGAATAAGGGCGACACGGAAATGTTGAATACTCATACTCTTCCTTTTTCAATATTATTGAAGCATTTGG
B6: 16 x 20 bp stacked junction (structured_DNA)
DNA 1: CGAATACTCAGCTCAACCGAAAGGTTGAGCCTTCGCTCGAAAGAGCGAAGTACTCTTCCG
DNA 2: CGGAAGAGTATGAGTATTCG

Each binder was assayed against T1, topo VI KGRR-AAA (assay: fluorescence anisotropy; Fluorescence anisotropy, 20 nM FAM-labelled DNA, topo VI 0 and 3.9-4000 nM, no nucleotide; buffer, salt, pH and temperature not given in supplied text). Conditions: protein: recombinant; tags: N-terminal His6-TEV on Top6B, removed; chain copies: 2;2; label: 5'-FAM strand 1; blunt.

Binder	Kd [nM]
B1	99 ± 2
B2	65 ± 4
B3	67 ± 4
B4	338 ± 11
B5	124 ± 6

What follows are binders tested against T2, topo VI H2TH-AAA in the same assay as above. Conditions: protein: recombinant; tags: N-terminal His6-TEV on Top6B, removed; chain copies: 2;2; label: 5'-FAM strand 1; blunt.

Binder	Kd [nM]
B1	167 ± 9
B2	94 ± 4
B3	58 ± 3
B4	505 ± 22
B5	180 ± 12

Same assay, conditions: protein: recombinant; tags: N-terminal His6-TEV on Top6B, removed; chain copies: 2;2; label: 5'-FAM strand 2; four-way Holliday junction, stacked-X, two GAAA-capped arms

Binder	Kd [nM]
B6	181 ± 8

Each binder was assayed against T3, topo VI holoenzyme WT in the same assay as above. Conditions: protein: recombinant; tags: N-terminal His6-TEV on Top6B, removed; chain copies: 2;2; label: 5'-FAM strand 1; blunt.

Binder	Kd [nM]
B1	38 ± 2
B2	84 ± 6
B3	49 ± 3
B4	427 ± 16
B5	62 ± 4

Same assay, conditions: protein: recombinant; tags: N-terminal His6-TEV on Top6B, removed; chain copies: 2;2; label: 5'-FAM strand 2; four-way Holliday junction, stacked-X, two GAAA-capped arms

Binder	Kd [nM]
B6	122 ± 4
